Data as given in patent US20040253247A1 (Genentech, published 2004).
Where no end group is shown, it is not given here.

Molecular target: rat albumin (rat, UniProt P02770 25-608)
Test: phage ELISA
Procedure: (§1) Phage ELISA—Phage clones (˜10¹¹ phage) were added to plates coated with rat, rabbit or human albumin. The microtiter plate was washed with wash buffer and bound phage were detected with HRP/Anti-M13 Conjugate. The amount of HRP bound was measured using ABTS/H₂O₂ substrate and monitoring the change at 405 nm.

Sequence of rat albumin (P02770 25-608 limits assumed): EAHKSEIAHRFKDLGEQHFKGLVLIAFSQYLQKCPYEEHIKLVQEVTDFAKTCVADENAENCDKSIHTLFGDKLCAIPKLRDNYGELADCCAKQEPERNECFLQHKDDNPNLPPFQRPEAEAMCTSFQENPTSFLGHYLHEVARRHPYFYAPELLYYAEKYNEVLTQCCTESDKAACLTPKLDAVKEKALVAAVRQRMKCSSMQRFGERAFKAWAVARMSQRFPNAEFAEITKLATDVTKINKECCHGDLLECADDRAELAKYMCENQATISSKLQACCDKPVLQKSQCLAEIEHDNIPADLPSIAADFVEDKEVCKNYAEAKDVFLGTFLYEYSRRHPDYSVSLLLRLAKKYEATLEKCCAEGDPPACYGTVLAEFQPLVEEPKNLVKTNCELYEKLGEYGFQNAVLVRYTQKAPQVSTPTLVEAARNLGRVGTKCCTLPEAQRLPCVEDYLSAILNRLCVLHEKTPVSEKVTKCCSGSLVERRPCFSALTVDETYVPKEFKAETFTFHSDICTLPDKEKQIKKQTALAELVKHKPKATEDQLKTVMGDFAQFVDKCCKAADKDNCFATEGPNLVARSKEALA

| Binder | binding result |
| --- | --- |
| EHDMCYFPGICWIAD (phage clone, Library HBC) [HBC-H6] | no binding |
| QTRSFCADWPRHESCKPLRG (phage clone, Library HA) [HA-H76] | no binding |
| RMPASLPCYWETICYESSEQ (phage clone, Library HB) [HB-H16] | no binding |
| SYAPCYFPGICWMGN (phage clone, Library HBC) [HBC-H8] | no binding |
| ASEICYFPGICWMVE (phage clone, Library HBC) [HBC-H12] | no binding |
| REPASLVCYFEDICFVRAEA (phage clone, Library HB) [HB-H3] | no binding |
| RGPDVCYWPSICFERSMP (not fully specified (bridges); cysteine pairing not given here, phage clone, Library HB) [HB-H6] | no binding |
| LAEMCYFPGICWMSA (phage clone, Library HBC) [HBC-H7] | no binding |
| DMCYFPGICWL (phage clone, Library HC) [HC-H13] | no binding |
| GVRTFCQDWPAHNSCKLLRG (phage clone, Library HA) [HA-H73] | no binding |
| KTEICYFPGICWMSG (phage clone, Library HBC) [HBC-H15] | no binding |
| RAPERWVCYWEGICFDRYEQ (phage clone, Library HB) [HB-H1] | no binding |
| TTEMCYFPGICWKTE (phage clone, Library HBC) [HBC-H14] | no binding |
| RTAESLVCYWPGICFAQSER (phage clone, Library HB) [HB-H18] | no binding |
| GMCYFPGICWA (phage clone, Library HC) [HC-H4] | no binding |
| KLCYFPGICWS (phage clone, Library HC) [HC-H2] | no binding |
| VQEVCYFPGICWMQE (phage clone, Library HBC) [HBC-H10] | no binding |
| GGEICYFPGICRVLP (phage clone, Library HBC) [HBC-H4] | no binding |
| SGAICYVPGICWTHA [HB-H7] | no binding |
| MEPSRSVCYAEGICFDRGEQ (phage clone, Library HB) [HB-H8] | no binding |
| VRDMCYFPGICWKSE (phage clone, Library HBC) [HBC-H19] | no binding |
| GTEVCYFPGICWGGG (phage clone, Library HBC) [HBC-H3] | no binding |
| ETCYFPGICWL (phage clone, Library HC) [HC-H12] | no binding |
| ELCYFPGICWM (phage clone, Library HC) [HC-H20] | no binding |

| Binder | binding result |
| --- | --- |
| KTCYFPGICWM (phage clone, Library HC) [HC-H10] | no binding |
| KVCYFPGICWM (not fully specified (bridges); cysteine pairing not given here, phage clone, Library HC) [HC-H5] | no binding |
| ALCYFPGICWM (phage clone, Library HC) [HC-H14] | no binding |
| EVCYFPGICWF (phage clone, Library HC) [HC-H11] | no binding |
| EMCYFPGICWT (phage clone, Library HC) [HC-H9] | no binding |
| EICYFPGICWI [HB-H12] | no binding |
| ELCYFPGICWT [HB-H13] | no binding |
| EVCYFPGICWM (phage clone, Library HC) [HC-H19] | no binding |
| EICYFPGICWM (phage clone, Library HC) [HC-H17] | no binding |
| ELCYFPGICWP (phage clone, Library HC) [HC-H15] | no binding |
| EVCYFPGICWE (phage clone, Library HC) [HC-H16] | no binding |
| DVCYFPGICWM (phage clone, Library HC) [HC-H8] | no binding |
| EMCYFPGICWS (phage clone, Library HC) [HC-H7] | no binding |
| DLCYFPGICWM (phage clone, Library HC) [HC-H3] | no binding |
| IVEMCYYPGICWISP [HB-H10] | no binding |
| DMCYFPGICFN (phage clone, Library HC) [HC-H18] | no binding |
| GRSFCMDWPAHKSCTPLML (phage clone, Library HA) [HA-H83] | no binding |
| DICYIPGICWM (phage clone, Library HC) [HC-H6] | no binding |
| SREVCYYPGICWNGA (phage clone, Library HBC) [HBC-H2] | no binding |
| QTELCYFPGICWNES (phage clone, Library HBC) [HBC-H13] | no binding |
| HAEICYFPGICWTER (phage clone, Library HBC) [HBC-H17] | no binding |
| RDTVCYFPGICWMAS (phage clone, Library HBC) [HBC-H18] | no binding |
| NDEICYFPGVCWKSG (phage clone, Library HBC) [HBC-H11] | no binding |
| LVPERIVCYFESICYERSEL (phage clone, Library HB) [HB-H4] | no binding |

Molecular target: rabbit albumin (rabbit, UniProt P49065 25-608)
Test: phage ELISA
Procedure: as §1

Sequence of rabbit albumin (P49065 25-608 limits assumed): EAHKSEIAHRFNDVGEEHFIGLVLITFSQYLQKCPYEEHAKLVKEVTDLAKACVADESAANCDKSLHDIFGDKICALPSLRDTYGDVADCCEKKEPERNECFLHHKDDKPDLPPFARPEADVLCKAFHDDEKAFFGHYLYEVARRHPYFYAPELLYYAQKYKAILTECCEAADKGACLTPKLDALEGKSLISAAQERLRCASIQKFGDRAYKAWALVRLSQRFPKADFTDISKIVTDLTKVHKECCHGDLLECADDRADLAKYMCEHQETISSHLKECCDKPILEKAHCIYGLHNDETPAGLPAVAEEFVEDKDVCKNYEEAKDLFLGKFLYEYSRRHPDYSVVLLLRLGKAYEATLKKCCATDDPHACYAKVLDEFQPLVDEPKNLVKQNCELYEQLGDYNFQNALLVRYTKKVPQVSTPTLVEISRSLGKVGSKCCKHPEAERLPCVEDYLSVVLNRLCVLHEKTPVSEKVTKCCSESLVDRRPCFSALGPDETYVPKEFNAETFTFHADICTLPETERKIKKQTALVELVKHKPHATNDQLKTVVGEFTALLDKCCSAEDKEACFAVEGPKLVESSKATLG

| Binder | binding result |
| --- | --- |
| EHDMCYFPGICWIAD (phage clone, Library HBC) [HBC-H6] | no binding |
| QTRSFCADWPRHESCKPLRG (phage clone, Library HA) [HA-H76] | no binding |
| RMPASLPCYWETICYESSEQ (phage clone, Library HB) [HB-H16] | no binding |
| SYAPCYFPGICWMGN (phage clone, Library HBC) [HBC-H8] | no binding |
| ASEICYFPGICWMVE (phage clone, Library HBC) [HBC-H12] | no binding |
| REPASLVCYFEDICFVRAEA (phage clone, Library HB) [HB-H3] | no binding |
| RGPDVCYWPSICFERSMP (not fully specified (bridges); cysteine pairing not given here, phage clone, Library HB) [HB-H6] | no binding |
| LAEMCYFPGICWMSA (phage clone, Library HBC) [HBC-H7] | no binding |
| DMCYFPGICWL (phage clone, Library HC) [HC-H13] | no binding |
| GVRTFCQDWPAHNSCKLLRG (phage clone, Library HA) [HA-H73] | no binding |
| KTEICYFPGICWMSG (phage clone, Library HBC) [HBC-H15] | no binding |
| RAPERWVCYWEGICFDRYEQ (phage clone, Library HB) [HB-H1] | no binding |
| TTEMCYFPGICWKTE (phage clone, Library HBC) [HBC-H14] | no binding |
| RTAESLVCYWPGICFAQSER (phage clone, Library HB) [HB-H18] | no binding |
| GMCYFPGICWA (phage clone, Library HC) [HC-H4] | no binding |
| KLCYFPGICWS (phage clone, Library HC) [HC-H2] | no binding |
| VQEVCYFPGICWMQE (phage clone, Library HBC) [HBC-H10] | no binding |
| GGEICYFPGICRVLP (phage clone, Library HBC) [HBC-H4] | no binding |
| SGAICYVPGICWTHA [HB-H7] | no binding |
| MEPSRSVCYAEGICFDRGEQ (phage clone, Library HB) [HB-H8] | no binding |
| VRDMCYFPGICWKSE (phage clone, Library HBC) [HBC-H19] | no binding |
| GTEVCYFPGICWGGG (phage clone, Library HBC) [HBC-H3] | no binding |
| ETCYFPGICWL (phage clone, Library HC) [HC-H12] | no binding |
| ELCYFPGICWM (phage clone, Library HC) [HC-H20] | no binding |

| Binder | binding result |
| --- | --- |
| KTCYFPGICWM (phage clone, Library HC) [HC-H10] | no binding |
| KVCYFPGICWM (not fully specified (bridges); cysteine pairing not given here, phage clone, Library HC) [HC-H5] | no binding |
| ALCYFPGICWM (phage clone, Library HC) [HC-H14] | no binding |
| EVCYFPGICWF (phage clone, Library HC) [HC-H11] | no binding |
| EMCYFPGICWT (phage clone, Library HC) [HC-H9] | no binding |
| EICYFPGICWI [HB-H12] | no binding |
| ELCYFPGICWT [HB-H13] | no binding |
| EVCYFPGICWM (phage clone, Library HC) [HC-H19] | no binding |
| EICYFPGICWM (phage clone, Library HC) [HC-H17] | no binding |
| ELCYFPGICWP (phage clone, Library HC) [HC-H15] | no binding |
| EVCYFPGICWE (phage clone, Library HC) [HC-H16] | no binding |
| DVCYFPGICWM (phage clone, Library HC) [HC-H8] | no binding |
| EMCYFPGICWS (phage clone, Library HC) [HC-H7] | no binding |
| DLCYFPGICWM (phage clone, Library HC) [HC-H3] | no binding |
| IVEMCYYPGICWISP [HB-H10] | no binding |
| DMCYFPGICFN (phage clone, Library HC) [HC-H18] | no binding |
| GRSFCMDWPAHKSCTPLML (phage clone, Library HA) [HA-H83] | no binding |
| DICYIPGICWM (phage clone, Library HC) [HC-H6] | no binding |
| SREVCYYPGICWNGA (phage clone, Library HBC) [HBC-H2] | no binding |
| QTELCYFPGICWNES (phage clone, Library HBC) [HBC-H13] | no binding |
| HAEICYFPGICWTER (phage clone, Library HBC) [HBC-H17] | no binding |
| RDTVCYFPGICWMAS (phage clone, Library HBC) [HBC-H18] | no binding |
| NDEICYFPGVCWKSG (phage clone, Library HBC) [HBC-H11] | no binding |
| LVPERIVCYFESICYERSEL (phage clone, Library HB) [HB-H4] | no binding |

Molecular target: human albumin (human, UniProt P02768 25-609)
Test: phage ELISA
Procedure: as §1

| Binder | binding result |
| --- | --- |
| ERQMVDFCLPKWGCLWGDGF (phage clone, Library RB) [RB-R11] | no binding |
| QRPIMDFCLPKWGCLWEDGF (phage clone, Library RB) [RB-R7] | no binding |
| RWQTEDVCLPKWGCLFGDGV (phage clone, Library RB) [RB-B1] | no binding |
| QRHMMDFCLPKWGCLWGDGY (phage clone, Library RB) [RB-R4] | no binding |
| QGDFWDICLPRWGCLSGEGY (phage clone, Library RB) [RB-B10] | no binding |
